According to patent publication US20240279618A1, “RECEPTOR TYROSINE KINASE AGONIST, COMPOSITION FOR CELL CULTURE MEDIUM, AND […] MAINTENANCE COMPOSITION” (SEKISUI CHEMICAL CO., LTD., priority 2021, published 2024):

Legend:
[1] = test system: iPS cells (253G1 cells); assay: iPS cell culture: evaluation of undifferentiated state (immunostaining); assay type: cell-based, human; settings: second passage, Day 6 (Culture day 20)
Protocol: The cells were cultured in the medium of each group for 3 to 5 weeks, and the following operations were performed on Days 4 to 7 of the passage. After washing the cells with D-PBS, 1 mL/well of 4% formaldehyde was added. After being left to stand for 30 minutes or longer, the solution was removed and washing was performed with D-PBS. 0.1% Triton X-100/D-PBS was added thereto and the mixture was left to stand at room temperature for 3 to 5 minutes. After washing with D-PBS, 1% of BSA/D-PBS was added thereto and the mixture was left to stand for 30 minutes.
An antibody for undifferentiation marker staining, such as OCT4 (Abcam, ab19857) or SSEA4 (Abcam, ab16287), was diluted in 1% BSA/D-PBS at an appropriate ratio, added to a well, which was left to stand for 30 to 60 minutes. After washing with D-PBS, secondary antibodies (a Goat anti-Rabbit IgG antibody (Abcam, ab 150115) and a Goat anti-Mouse IgG antibody (Abcam, ab150077)) were diluted in 1% BSA/D-PBS at an appropriate ratio and added to the wells, which were left to stand with light shielded with an aluminum foil for 30 to 60 minutes. DAPI (DOJINDO LABORATORIES, 340-07971) was diluted with 1% BSA/D-PBS to a concentration of 1 to 10 μg/mL, and added to each well, which was left to stand for 5 minutes. […] The image was acquired by observing the sample under a fluorescence microscope.

[2] = test system: human bone marrow-derived MSC; assay: MSC: evaluation of fat differentiation induction (Oil Red O); assay type: cell-based; settings: MSC after 3-passage subculture with 20 ng/ml additive, 14 days induction
Protocol: A third passage was performed in a CellBIND(R) 24-well transparent multi-well plate (Corning, C/N: 3337), and then at a time of reaching 80% to 90% confluence, medium exchange was performed in MesenCult Stem Cell Adipogenic Differentiation Medium (PromoCell, C/N: C-28016) which is a medium for differentiation induction. Furthermore, for the cells as a negative control, D-MEM (10% FBS or 20% FBS) was used for the medium exchange. The medium exchange was carried out every 2 to 4 days.
After 14 days from seeding, a 4% paraformaldehyde/phosphate buffer solution was added thereto at 500 μL/well, and the cells were left to stand for 2 hours or longer. After the immobilization, purified water was added thereto at 500 μL/well. An Oil Red stock liquid (Cosmo Bio Co., Ltd., C/N: AK09F) and purified water were mixed at a ratio of 6:4, and the mixture was left to stand at room temperature for 10 to 15 minutes. Thereafter, the filtrate was filtered through a membrane filter having a pore size of 0.5 to 1.0 μm, and the filtrate was used as an Oil Red O liquid. 500 μL of the Oil Red O liquid was added to each well and the mixture was left to stand at room temperature for 15 minutes. […] 100 μL of the eluate was transferred to a 96-well plate and the absorbance at 520 nm was measured. […]

[3] = test system: mouse fibroblast cell line NIH/3T3; assay: Solution preservation stability of bFGF and VHH homodimer, read out by fibroblast growth; assay type: cell-based; settings: 0.5 mg/mL in D-PBS, fibroblast growth on second day
Protocol: bFGF and the VHH homodimer (SEQ ID NO: 23, sequence name: #1-LA-#1, sometimes referred to as a single-domain antibody) was mixed with a D-PBS solution (Fujifilm Wako Pure Chemical Corporation) so that the concentration was 0.5 mg/mL, and incubation was performed at 37° C. for 1 week. Then, the growth promoting abilities for fibroblast growth of four test subjects, which are an incubated VHH homodimer, a pre-incubated bFGF, a VHH homodimer after thawing from freeze-preservation, and bFGF immediately after solutionizing with D-PBS from a freeze-dried product, were evaluated. As a negative control, culture without any of the bFGF and the VHH homodimer was also performed at the same time. The culture conditions were the same as those in Item 1 and Item 2 of the present Example, and the cell growth was evaluated by the number of cells on the second day after the start of culture.

[4] = Thermal stability by protein thermal shift assay (SYPRO Orange); assay type: physicochemical; settings: 0.5 mg/mL in D-PBS, 25° C. to 95° C., 1° C./min
Protocol: The Td is evaluated by a Td value at the time of raising the temperature from 25° C. to 95° C. (temperature rising rate: 1° C./min) under the solution conditions of a protein concentration (0.5 mg/mL) in a D-PBS solution (including 0.2 g of KH2PO4, 1.15 g of Na2HPO4, 0.2 g of KCl, and 8 g of NaCl per liter of the aqueous solution, pH 7.4).
The thermal stability of VHH was measured by a protein thermal shift assay method.
In order to confirm the thermal stability of the VHH monomer Clone #1 and the tandem dimer #1L4, the denaturation temperature (Td) was measured by a protein thermal shift assay method. […] In addition, in order to measure the fluorescence background, a control including no protein was also prepared at the same time, and dispensed into an 8-strip PCR tube (manufactured by Nippon Genetics Co., Ltd.). This tube was set in a real-time PCR measuring device, QuantStudio 3 (manufactured by Thermo Fisher Scientific, Inc.), and a change in fluorescence intensity in a range of 25° C. to 95° C. was measured under the condition of 1° C./min using a fluorescence filter for ROX measurement. After the measurement, Td was calculated using the value obtained by subtracting the background value from the measured value.

## FGF2: fibroblast growth factor (basic), human, recombinant (154aa), positive control; SEQ ID NO: 58 [reference compound]
[1]
  undifferentiation markers OCT4 and SSEA4: positive
[2]
  differentiation into the fat cell line (Oil Red O): Differentiation was similarly recognized
[3]
  cell growth activity after incubation at 37° C. for 1 week: the same as that in the case of no addition

B1: VHH Clone #1: alpaca-derived VHH single-domain antibody (monomer) binding FGFR1, amino acid sequence SEQ ID NO: 17 (protein)
VHH: QLQLVESGGGSVQAGGSLRLSCAASRSLSRFNVWTWYRQAPVKQRELVASITKSGDTNYAESVKGRFIISRDDDKNTVYLQMNNLKSEDTGIYYCAGSYYSGSYLYPSPGGFSVWGQGTQVTVSS
modifications: VHH_Clone_#1
[4]
  denaturation temperature (Td): 74.1 °C

B2: #1-L4-#1: dimer of VHH #1 with linker L4 (GSEGKSSGSGSESKST), SEQ ID NO: 23 (protein)
VHH: QLQLVESGGGSVQAGGSLRLSCAASRSLSRFNVWTWYRQAPVKQRELVASITKSGDTNYAESVKGRFIISRDDDKNTVYLQMNNLKSEDTGIYYCAGSYYSGSYLYPSPGGFSVWGQGTQVTVSSGSEGKSSGSGSESKSTQLQLVESGGGSVQAGGSLRLSCAASRSLSRFNVWTWYRQAPVKQRELVASITKSGDTNYAESVKGRFIISRDDDKNTVYLQMNNLKSEDTGIYYCAGSYYSGSYLYPSPGGFSVWGQGTQVTVSS
modifications: #1-L4-#1
[4]
  denaturation temperature (Td): 75.4 °C
[1]
  undifferentiation markers OCT4 and SSEA4: positive
[2]
  differentiation into the fat cell line (Oil Red O): Differentiation was similarly recognized
[3]
  cell growth activity after incubation at 37° C. for 1 week: exhibited the same cell growth activity as that of bFGF
